Legend:
p62 LIR (Homo sapiens) = p62 LIR (Homo sapiens) (UniProt Q13501); settings: cited from earlier work
[1] = molecular target: GST fusion of human OPTN (aa 2-311), Q96CV9-1; test: phage ELISA; settings: Background correction to BSA signal was applied; read off a plot

Chain of GATE-16 (P60520 1-116): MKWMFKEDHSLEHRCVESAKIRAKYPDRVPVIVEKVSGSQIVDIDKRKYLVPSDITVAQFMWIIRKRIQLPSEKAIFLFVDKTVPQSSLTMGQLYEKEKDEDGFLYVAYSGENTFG

Substance | Kd (p62 LIR (Homo sapiens)) [µM] | response [1] [OD 450 nm]
GATE-16 (from UniProt P60520) | 5.2 | 
LC3Bwt displayed on phage (from UniProt Q9GZQ8) F11L; R14L; R15N; Q19L; E22D; D23N; [26-28]I (column not resolved, see notes); K53I; K55G |  | 0.91

Reference: paper PMC7137635
